In the supplement of paper PMC9170038:

Tested on: K4 kissing-loop RNA reporter
Experiment: apparent KD of K4 kissing-loop reporter; higher = weaker reporter binding
Settings: Eterna round: R107
Experimental: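 RNA-MaP round R107: designed RNA switches with theophylline, tryptophan, arginine or FMN aptamers are transcribed on-chip within common flanks. They are titrated with a labelled K4 kissing-loop RNA reporter in RNA-MaP buffer (100 mM Tris pH 7.5, 80 mM KCl, 4 mM MgCl2), without ligand or with the indicated ligand. Median apparent KD per design.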

[1] = input ligand: theophylline 20 uM
[2] = input ligand: tryptophan 2.4 mM
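Further: bound reporter read as fluorescence of individual clusters on recovered sequencing chips by microscopy, with normalized cluster intensities fitted with a binding model.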

Sequence | apparent KD of K4 kissing-loop reporter (input ligand: FMN 200 uM) [nM] | apparent KD of K4 kissing-loop reporter (input ligand: arginine 13.2 mM) [nM] | apparent KD of K4 kissing-loop reporter (input ligand: none) [nM] | apparent KD of K4 kissing-loop reporter [1] [nM] | apparent KD of K4 kissing-loop reporter [2] [nM]
UGGAGUUGACGAAAAGUCAACUCCUGAGAUACCAGUGACGAAAGUCACCCUUGGCAGCUCACUGCCAGUGAUGUUGGUAUAUAAA [#OpenEnded 4] | 82.6 | 71.4 | 61 | 146 | 124
UGGAGUUGACGAAAAGUCAACUCCUGAGAUACCAGUGACGAAGGUCACCCUUGGCAGCUCACUGCCAGUGAUGUUGGAAGAUAAA [whbob_SS_Theo_A_w47] | 273 | 292 | 303 | 396 | 174
UGGAGUUGACGAAAAGUCAACUCCUGAGAUACCAGUGACGAAGGUCACCCUUGGCAGCUCACUGCUAGUGAUGUUGGUAGUUAAA [whbob_SS_Theo_A_w50] | 1050 | 502 | 797 | 773 | 829
UGGCAGGUAUCGGCCGCCACUUUCUAGUACAUACGCAUAUCUUUACCAUCAGUGAUGUUGAUCAUAAGGACCGGGAUACAUCAGG [theeternabot_exclusion_KL_Trp_B_22] | 243 | 208 | 249 | 220 | 200
UGGGAUGUUAAAGGAUAUAGAAAGUGAUAUUAGAAAGUGAGUGAUGUUGAUGUAGGUGAUGAUAUGUUAGAAGGUUAACAAAACG [abcde] | 411 | 219 | 334 | 303 | 292
UGUACCGAGGCAGGAUAUGUCGUCGAAAGACGAAAUGGAGUGAUGUUCCUUAAACUGCGAAAGCAGACAGAAGGGCCUUGGUACU [FmnBS 29 G10+C76] | 132 | 179 | 175 | 202 | 160
UGUACCGAGUAAGGAUAUGUCGUCGAAAGACGAAAUGGAGUGAUGUUCCUUAAACUGCGAAAGCAGACAGAAGGUACUUGGUACU [FmnBS 29 A11+U75] | 139 | 217 | 233 | 224 | 203
UGUACCGAGUCAGGAUAUCAUAAUAAUCCAGUGAUGUUGGAAUAACCAGUACAAAAGUGCUGGCCUUGAGAAGGGACUUGGUACU [FmnBS 4 #SwitchBubble #StaticStem] | 179 | 140 | 177 | 157 | 147
UGUACCGAGUCAGGAUAUGGCGUCGAAAGACGAAAUGGAGUGAUGUUCCUUAUCUGCGAAAGCAGUCCAGAAGGGACUUGGUACU [FmnBS 27 #SwitchBubble #StaticStem #DoubleMagnetSystem] | 134 | 120 | 137 | 123 | 137
UGUACCGAGUCAGGAUAUGGCGUCGAAAGACGAAUCUUAGUGAUGUUAAGGAUCUGCGAAAGCAGUCCAGAAGGGACUUGGUACU [FmnBS 26 U37+A49] | 236 | 422 | 495 | 444 | 475
UGUACCGAGUCAGGAUAUGGCGUCGAAAGACGAAUCUUAGUGAUGUUAGGGAUCUGCGAAAGCAGUCUAGAAGGGACUUGGUACU [FmnBS 26 U37+U68] | 396 | 372 | 439 | 574 | 462
UGUACCGAGUCAGGAUAUGGUAUAGCGGAAACGCACCAGUGAUGUUGGACGCGAAAGCGAUAAAAUCCAGAAGGGACUUGGUACU [FmnBS 20 #SwitchBubble #StaticStem #DoubleMagnetSystem] | 184 | 224 | 209 | 221 | 207
UGUCAUGGAAACAUGAACGUUGAUGUUCGACGAGGACCGGUACGGCCGCCACUCGAGUAAUAGUCAGUGAUGUUGACUUGUUUAA [KL-SSTryp-A form1 sub4] | 49.4 | 101 | 69.1 | 90.9 | 55.6
UGUCAUUGGUCGGCCGCCACUAGACGGACAUAAGUCUGUCAAUAAAGAGUGAUGUUCUUAAAUAAUAGGACCGGGACCGAUGACU [TrypBS 28 #SwitchBubble #StaticStem] | 527 | 458 | 451 | 503 | 201
UGUCAUUGGUCGGCCGCCACUAGGACCGGGUAUAACCCAGUGAUGUUGGUAAAUACGGCCGCCACUAGGACCGGGACCGAUGACU [TrypBS 14 #DoubleAptamer #SwitchBubble #K4Middle] | 263 | 233 | 255 | 280 | 173
UGUCAUUGGUCGGCCGCCACUGGACCGGGUAUAAUCCCAGUGAUGUUGGUAAAAUACGGCCGCCACAGGACCGGGACCGAUGACU [TrypBS 15 #DoubleAptamer #SwitchBubble #K4Middle] | 234 | 208 | 240 | 215 | 134
UGUCAUUGGUCGGCCGCCACUUCAAAGAGAGUGAUGUUCUUAAAGACGGAUCGAAAGAUCUGUCGAAGGACCGGGACCGAUGACU [TrypBS 17 #SwitchBubble #StaticStem] | 1770 | 973 | 1110 | 1200 | 285
UGUCAUUGGUCGGCCGCCACUUCAGGUCAAAGACCAGAGUGAUGUUCUUGCACAAAGUGCUUAAGAAGGACCGGGACCGAUGACU [TrypBS 14 #SwitchBubble #K4Middle] | 256 | 53.5 | 63.3 | 69.5 | 1060
UGUCAUUGGUCGGCCGCCACUUCAUAAAGAGUGAUGUUCUGAAAGACGGAUCGAAAGAUCUGUCGGAGGACCGGGACCGAUGACU [FiskerMod 2 - Jieux - Same State - Tryptophan B] | 1450 | 587 | 1440 | 686 | 397
UGUCAUUGGUCGGCCGCCACUUCGUGUGGAGUGAUGUUUUGUAGGACGGAUCGAAAGAUCUGUCGAAGGACCGGGACCGAUGACU [FiskerMod 19 - Jieux - Same State - Tryptophan B] | 96.8 | 85.8 | 87.6 | 33.5 | 285
UGUCAUUGGUCGGCCGCCACUUGAAGGUCAAAGACCAUAGAGUGAUGUUCUAAGACGAAAGUCACGAGGACCGGGACCGAUGACU [TrypBS 4 #SwitchBubble #K4Middle] | 57.7 | 195 | 114 | 351 | 1130

Sequence | apparent KD of K4 kissing-loop reporter (input ligand: FMN 200 uM) [nM] | apparent KD of K4 kissing-loop reporter (input ligand: arginine 13.2 mM) [nM] | apparent KD of K4 kissing-loop reporter (input ligand: none) [nM] | apparent KD of K4 kissing-loop reporter [1] [nM] | apparent KD of K4 kissing-loop reporter [2] [nM]
UGUCAUUGGUCUGAUACCAGAAGAAAUCUGGAGUGAUGUUCCGAGUACGACAAAAGUCGCUUCCCUUGGCAGCAGACCGAUGACU [TheoBS 22 #SwitchBubble 13 #StaticStem] | 235 | 198 | 198 | 161 | 207
UGUCAUUGGUCUGAUACCAGAUGAUAAUCUGGAGUGAUGUUCCAAGAACGACAAAGUCGCAUCCCUUGGCAGCAGACCGAUGACU [TheoBS 18 #SwitchBubble 13 #StaticStem] | 312 | 151 | 236 | 526 | 238
UGUCAUUGGUCUGAUACCAGCUGAUCGGAAACGAUCAUGCUGGAGUGAUGUUCCAGGAAAAGCCCUUGGCAGCAGACCGAUGACU [TheoBS 11 #SwitchBubble #StaticStem] | 474 | 248 | 121 | 405 | 195
UGUCAUUGGUCUGAUACCAGCUUGAUCGGUAAACGAUCUACUGGAGUGAUGUUCCUAAAUAGCCCUUGGCAGCAGACCGAUGACU [TheoBS 4 #SwitchBubble #StaticStem] | 197 | 157 | 180 | 123 | 173
UGUCAUUGGUCUGAUACCAGUUAGACCGAUAAGGUCAAAACUGGAGUGAUGUUCCCAAAUAACCCUUGGCAGCAGACCGAUGACU [TheoBS 5 #SwitchBubble #StaticStem] | 452 | 116 | 185 | 249 | 241
UGUCAUUGGUCUGAUACCAGUUGAUAAACUGGAGUGAUGUUCCAAUCGAGAUAACUCGACAACCCUUGGCAGCAGACCGAUGACU [TheoBS 15 #SwitchBubble 13 #StaticStem] | 182 | 173 | 176 | 128 | 168
UGUGAACAAAAGUAGAGUGGACCACUAUAGCGAGGACCGGUACGGCCGCCACUCGUAUAUGAAUUCAGUGAUGUUGAAAAGAGCU [whbob_EX_Tryp_A_t10] | 180 | 281 | 231 | 306 | 165
UGUGAUGUGUAGUGUUAUGUUUUGAGGGAUACCAGAGUCUUUUUAUUCCCUUGGCAGCUUGAGUGAUGUUUGAUGCUGUUGUUGU [dvccmullin] | 463 | 342 | 412 | 431 | 339
UGUGCCAACAGCGAUACCAGCCCGGCAGUGAUGUUGCCGGACGGAGUGAUGUUCCGGCAGGGCCCUUGGCAGCGCAGAAGCGCGA [Exclusion Theophylline B Gf 28] | 215 | 222 | 261 | 432 | 202
UGUGCUGUGUAGUGUAAUGUUUUGCGGGAUACCAGAGUCUUUUUAUUCCCUUGGCAGCUUGAGUGAUGUUUGAUGCUGUUCUUGU [bbtbmullin] | 376 | 322 | 356 | 336 | 313
UGUGUUGUAUGACGGUUUGUCACUUAGUAUUAGGAUAUAUAAACAAAUAGAAGGGAUGGCGGAGUGAUGUUCCGCCGGCCGCCAU [FMN A Exl V10] | 92.3 | 92.9 | 80.8 | 94 | 97.6
UGUGUUGUUGUGAUGUUUGGUGUUGUAGGGCAGGAUAUCGUAGAGGCGAGAAGGGCUUUUGUGCGGUAUGAGUGAUGUUUGUAGG [svvsmullin] | 119 | 89.3 | 160 | 134 | 122
UGUGUUGUUUUGAUGUUUGGUGUUGCAUGGCAGGAUAUCGUAGAGGCGAGAAGGGCUUUUGAGCGGUAUGAGUGAUGUUUGUAGG [p,,mmullin] | 526 | 309 | 441 | 354 | 379
UGUGUUGUUUUGAUGUUUGGUGUUGCAUGGCAGGAUAUCGUAGAGGCGAGAAGGGCUUUUGUGCGGUAUGAGUGAUGUUUGUAGG [iihymullin] | 509 | 372 | 509 | 466 | 398
UGUGUUGUUUUGAUGUUUGUUGUAAGUUGGCAGGAUAUCGUAGAGGCGAGAAGGGCUUUUAUGCGUUAUGAGUGAUGUUUGUAGG [ggbgzmullin] | 353 | 241 | 357 | 351 | 319
UGUGUUUACCUGACUCAGUGAUGUUGAGAAGGAGCGUGCAAAUGCACAGGUAGGUCGCUCAACCUAAAUUCAGGUGAGCACUAAA | 321 | 261 | 323 | 234 | 169
UGUGUUUACCUGACUCAGUGAUGUUGAGAAGGAGCGUGCGAAAGCACAGGUAGGUCGCUCAACCUAAAUUCAGGUGAGCACUAAA [#SwitchBubble 10 #K4Early] | 268 | 234 | 341 | 334 | 277
UGUGUUUACCUGACUCAGUGAUGUUGAGAAGGAGCGUGCGAAUGCACAGGUAGGUCGCUCAACCUAAAUUCAGGUGAGCACUAAA | 303 | 76.4 | 408 | 656 | 724
UGUUAUGUAUCAGGAUAUUAGUGAUGUUUGUUUAUGUUAGUGAUGUUGAUAUUUGUUUUAUGUAUUUAAGAAGGGAUUGUGAUGU [xexxmullin] | 74.1 | 23.1 | 55.4 | 35.9 | 57.8
UUAAGGGUCCGAGGAUAUCUCCCAGUGAUGUUGGGCGAUACGGCCCUUAAGACGAAUGGUUGAAGGAGAGAAGGCGGCUCCCGAU [Onatbi] | 119 | 132 | 108 | 126 | 110
UUACCAAGUGAUGUUUGGAAAUAUCCUAGGCAGGAUAUGCGGAAACGCAGAAGGGCCACCUGAUAGUGAAGGAAACUUCGCUAUC [Ex FMN A 1] | 168 | 141 | 152 | 130 | 151
